Results on 3 molecules are retold here after patent publication US20230399390A1 (NOVAGO THERAPEUTICS, published 2023).

Test [1] has as its target T1, rat Nogo-A d20plus region, recombinantly produced in E. coli (rat, UniProt Q9JK11 520-843, limits assumed).
T1 construct: domain: d20plus; also called rat d20plus; rat peptide d20plus
T1 sequence (looked up): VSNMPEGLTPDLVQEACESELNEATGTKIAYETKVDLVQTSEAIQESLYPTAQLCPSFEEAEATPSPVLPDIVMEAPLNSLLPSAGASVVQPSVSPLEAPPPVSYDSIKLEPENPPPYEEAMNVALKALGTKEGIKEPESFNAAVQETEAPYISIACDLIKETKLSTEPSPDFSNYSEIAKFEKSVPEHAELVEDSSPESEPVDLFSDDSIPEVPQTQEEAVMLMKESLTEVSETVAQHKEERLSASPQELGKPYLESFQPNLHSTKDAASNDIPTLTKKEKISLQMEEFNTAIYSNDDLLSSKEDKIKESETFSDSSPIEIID
The experiment in a line: ELISA, coated rat d20plus. From the text: (§1) The neurite outgrowth inhibitor Nogo-A contains 3 inhibitory regions. Two are shared with the splice variant Nogo-B (Nogo-66 located between the two transmembrane regions and the NIR domain at the tip of the N-terminus) and one is shared with the splice variant Nogo-C (Nogo-66). The unique, highly inhibitory domain for neurite outgrowth of Nogo-A is located in the exon 3 of Nogo-A and is called delta 20 region (d20; human aa position 566-748) (Oertle et al., J. Neurosci. 23 (2003), 5393-5406). To confirm the binding properties of antibodies NG004 NG034 and to monitor for cross-reactivity to other species like rat, an ELISA with a fragment containing the d20 region plus some additional amino acids C- and N-terminal of the inhibitory region (human aa position 543-866) was performed. This fragment is called rat or human d20plus and is recombinantly produced in E. coli. To examine that the antibody binds strongly to the d20plus region and to compare the binding properties of the subject antibodies NG004 and NG034 to the already known antibodies (11C7 and Ozanezumab) the ELISA was used and EC₅₀ values were compared.
(§2) The ELISA is performed according to a standard protocol (Engvall & Perlmann, J. Immunol. 109 (1972), 129-135, Engvall & Perlmann, Immunochemistry 8 (1971), 871-874). […] The readouts are performed on the Tecan Sparc plate reader.

For test [2], the target named is T2, human Nogo-A d20plus region (human aa position 543-866), recombinantly produced in E. coli (human, UniProt Q9NQC3 543-866).
T2 construct: range 543-866; also called human d20plus; hu d20+
T2 sequence (looked up): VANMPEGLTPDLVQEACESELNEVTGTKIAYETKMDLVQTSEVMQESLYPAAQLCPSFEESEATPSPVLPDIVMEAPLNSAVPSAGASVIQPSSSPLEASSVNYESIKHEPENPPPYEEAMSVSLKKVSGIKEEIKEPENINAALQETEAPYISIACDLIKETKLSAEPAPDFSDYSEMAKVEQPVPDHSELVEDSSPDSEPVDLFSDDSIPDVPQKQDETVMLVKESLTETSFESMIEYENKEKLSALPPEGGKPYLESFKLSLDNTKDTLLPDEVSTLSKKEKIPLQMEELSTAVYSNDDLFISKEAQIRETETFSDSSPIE
Kind of test: ELISA, coated human d20plus.
Excerpt: as §1, §2
A general note: In an ELISA, binding on a coated surface is turned into a signal by an enzyme label.

Test [3] addresses T2, human Nogo-A d20plus region (human aa …). Kind of test: ELISA, coated d20plus (human, as read from the context), internal standard.
For test [4] the target is unchanged. Kind of test: ELISA, plate coated with 3 ug/ml human d20plus.
Excerpt: as §1, §2

The target of test [5] is T3, peptide 36: 141-INAALQETEAPYISI-155 (human).
T3 construct: Spotted on a nitrocellulose membrane; The range counts on the d20plus region; also called spot 36
T3 peptide: INAALQETEAPYISI
The experiment in a line: pepscan, 15-mer peptides on nitrocellulose, NG004 at 1 ug/ml. The method, then: (§3) Epitope mapping of NG004 was performed using scans of overlapping peptides. The sequences of the d20plus region of Nogo-A (aa 543-866 of human Nogo-A) were synthesized as linear 15-mer peptides with an 11 amino acid overlap between individual peptides. Those peptides were spotted onto nitrocellulose membranes (JPT Peptide Technologies, Berlin, Germany). The membrane was activated for 5 min in methanol and washed in TBS for 10 min at RT. Non-specific binding sites were blocked for 2 hours at RT with Roti®-Block (Carl Roth GmbH+Co. KG, Karlsruhe, Germany). NG004 (1 μg/ml) was incubated in Roti®-Block for 3 h at room temperature. Binding of primary antibody was determined using HRP-conjugated donkey anti-human IgG secondary antibody. Blots were developed and evaluated using ECL and ImageQuant 350 detection (GE Healthcare, Otelfingen, Switzerland).

The target of test [6] is T4, peptide 35: 137-EPENINAALQETEAP-151 (human).
T4 construct: Spotted on a nitrocellulose membrane; The range counts on the d20plus region; also called spot 35
T4 peptide: EPENINAALQETEAP
The description is as above. The method, then: as §3

For test [7], the target named is T5, peptide 34: 133-EEIKEPENINAALQE-147 (human).
T5 construct: Spotted on a nitrocellulose membrane; The range counts on the d20plus region, not on full-length Nogo-A; also called spot 34
T5 peptide: EEIKEPENINAALQE
The test is described as above. As for the experimental part: as §3

B1: anti-Nogo-A specific human antibody NG034 (antibody, V domains shown)
VH: EVQLVETGGGLVPPGGSLRLSCAASGFTFTNYSMHWVRLAPGKRLEYISAISSDGGDPFYASSVKGRVAISRDNSKKTLYLQMGRLRPEDTAVYYCVSDAFDVWGQGTMVTVSS
VL: EIVLTQSPLSLSVTLGQPASISCRSSQSLLYSNGNTYLNWFQQRPGQSPRRLLYRVSNRDSGVPDRFSGSGSGTHFTLKISRVEAEDVGVYYCMQGTHWPRTFGQGTKVEIK
In the case of B1, the figures for the EC50 in test [1] and in test [2] were 0.229 nM and 0.298 nM, respectively.

B2: Ozanezumab (antibody, V domains shown)
VH: QVQLVQSGAEVKKPGASVKVSCKASGYTFTSYWMHWVRQAPGQGLEWIGNINPSNGGTNYNEKFKSKATMTRDTSTSTAYMELSSLRSEDTAVYYCELMQGYWGQGTLVTVSS
VL: DIVMTQSPLSNPVTLGQPVSISCRSSKSLLYKDGKTYLNWFLQRPGQSPQLLIYLMSTRASGVPDRFSGGGSGTDFTLKISRVEAEDVGVYYCQQLVEYPLTFGQGTKLEIK
With B2, the EC50 (in general, the concentration that produces a half-maximal response) in test [3] turned out to be 0.2 nM.

B3: anti-Nogo-A specific human antibody NG004 (antibody, V domains shown)
VH: EVQLVESGGGVVQPGRSLRLSCAASGFTFRSHAMHWVRQAPGKGLEWVAVTSYDGTNKYYADSVKGRFTISKDNSKNTLYLQMDSLRVEDTAVYYCARGRAVAGTREDYWGQGTLVTVSS
VL: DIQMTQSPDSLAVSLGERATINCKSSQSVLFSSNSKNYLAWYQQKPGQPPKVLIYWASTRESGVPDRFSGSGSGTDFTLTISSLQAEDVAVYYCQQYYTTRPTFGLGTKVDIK
notes: The neurite outgrowth assay used NG004.h4.m1 (human IgG4 S228P) and NG004.m1 (mouse IgG1); also called NG004.m1; NG004.h4.m1
B3: the EC50 in test [4] turned out to be 0.26 nM. Also, the binding result in test [5], in test [6] and in test [7] was “binds” throughout.
